Measurements from paper PMC8465381, “Dopamine-Conjugated Carbon Dots Inhibit Human Calcitonin Fibrillation” (Nanomaterials, 2021).
Positions of bridges follow the written chain, without caps; N, C: chain ends. No end group written: not given here.

Biological target: the molecule itself
Assay: thioflavin-T fluorescence kinetics + TEM; 64 μM hCT alone, 50 mM phosphate buffer pH 7.4, 16 μM ThT, 1% DMSO, 25 °C, 384-well nonbinding plate with agitation every 2 h; end products negatively stained for TEM; fibril formation (self-assembly)

B1: Human calcitonin (peptide, UniProt P01258 85-116, looked up)
peptide: CGNLSTCMLGTYTQDFNKFHTFPQTAIGVGAP-NH2
modifications: disulfide 1-7
notes: human calcitonin, 32-residue hormone peptide cut from the calcitonin precursor; numbers count on: the mature protein; Forms amyloid fibrils; preformed fibrils of the same peptide were used as seeds; also called hCT; source: synthetic peptide (Fmoc solid-phase synthesis, RP-HPLC purified)
binding result: binds
